From patent US20090017017A1 (SYMPHOGEN A S, published 2009)

T1: Rhesus D antigen (human, UniProt Q02161 2-417)
T1 construct: whole, on cells; Presented on RhD(+) erythrocytes; also called RhD; RhD antigen
T1 sequence (looked up): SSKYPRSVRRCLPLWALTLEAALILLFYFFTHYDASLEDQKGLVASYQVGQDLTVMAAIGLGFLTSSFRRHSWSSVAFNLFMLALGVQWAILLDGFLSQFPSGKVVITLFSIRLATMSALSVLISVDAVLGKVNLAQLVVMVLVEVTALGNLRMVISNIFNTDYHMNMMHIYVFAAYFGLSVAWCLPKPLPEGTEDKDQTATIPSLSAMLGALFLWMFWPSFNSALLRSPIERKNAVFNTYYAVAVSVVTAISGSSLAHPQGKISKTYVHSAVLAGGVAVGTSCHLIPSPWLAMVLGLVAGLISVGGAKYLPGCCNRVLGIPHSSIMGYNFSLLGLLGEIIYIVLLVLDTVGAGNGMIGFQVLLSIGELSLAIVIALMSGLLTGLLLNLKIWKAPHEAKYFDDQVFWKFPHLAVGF

B1: RhD162.119G12 (Fab, V domains shown)
VH: QVQLVESGGGLVKPGGSLRLSCAASGFGFSAYSMNWVRQAPGKGLEWVSSITSTTTYYADSVKGRFSISRDNAKSTLYLRMNSLRAEDTAVYYCVREIAFRGSTYSRWSYYFDFWGQGTLVTVSS
VL: DIQLTQSPSSVSASVGDSVTITCRASQAVSGWVAWYQQKPGKAPKLLIFGLSNLEDGVPSRFSGSGSATDFTLTITGLQPEDLATYYCLQANRFPLSFGGGTRVEIKR
notes: Tested as Fab in E. coli periplasmic extract (VH on human gamma 1 CH1, vector Em351)
B2: RhD321.187G08 (Fab, V domains shown)
VH: EVQLVESGGGLVKPGGSLRLSCAASGFTFRSYSMNWVRQAPGKGLEWVSSIGSSSIYTYSADSVKGRFTISRDNAKNSLYLQMNSLRAEDTAVYYCARGEPLNYDYIWGRSRLTIHWGQGTLVTVSS
VL: LNFMLTQPHSVSESPGKTVTISCTRSSGSIASNYMQWYQQRPGSSPTTVIYEDNRRPSGVPDRFSGSIDSSSNSASLTISGLKTEDEADYYCQSYDSNNWVFGGGTKLTVLG
notes: as for B1
B3: RhD163.119A02 (Fab, V domains shown)
VH: QVQLQESGPGLVKPSETLSLTCTVSGGSISSYYWSWVRQPPGKGLEWIGYIYYSGSTNYNPSLKSRVTIALDTSKNQFSLKLRSVTAADTAVYFCTRDWRQYGSAIRGSRYYYGMDVWGQGTTVTVSS
VL: EIVLTQSPGTLSLSPGERATLSCRASQNPRRNFLAWYQQKPGQAPRLLIYAASTRATGIPDRFSGSGSGTDFTLTIDRLEPEDSAVYYCQVYGSSPLYTFGQGTKVEMKR
notes: as for B1
B4: RhD189.181E07 (Fab, V domains shown)
VH: QVQLVESGGGVVQPGRSLRLSCAASGFTFSSYGMHWVRQAPGKGLEWVAVIWYDGSNKYYADSVKGRFTISRDNSKNTLYLQMNSLRAEDTAVYYCARDMVTMVRGAYRNYYYYGMDVWGKGTTVTVSS
VL: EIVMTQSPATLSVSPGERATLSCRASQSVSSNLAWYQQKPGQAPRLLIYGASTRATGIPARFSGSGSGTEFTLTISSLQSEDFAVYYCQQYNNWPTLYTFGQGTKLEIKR
notes: as for B1
B5: RhD324.231F07 (Fab, V domains shown)
VH: EVQLVESGGGLVQPGRSLRLSCVASGFTFSSYWMHWVRQVPGKGLVWVSRINVDGKSTSYADSVKGRFTISRDNAKNTLYLQMNSLRAEDTAVYYCARDPRRFLEWARYGMDVWGRGTTVTVSS
VL: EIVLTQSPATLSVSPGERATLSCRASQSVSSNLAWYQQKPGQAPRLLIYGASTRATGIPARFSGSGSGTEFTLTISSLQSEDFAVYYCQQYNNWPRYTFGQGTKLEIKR
notes: as for B1
B6: RhD319.187A11 (Fab, V domains shown)
VH: QVQLVESGGGVVQPGRSLRLSCAASGFTFSTYGMHWVRQAPGKGLEWVAVIWYDGSNKNYADSVKGRFTISRDNSKNTLYLQMNSLRAEDTAVYYCARDLQGYRSSWYRMYYYYGMDVWGQGTTVTVSS
VL: QTVVTQEPSLTVSPGGTVTLTCASSTGAVTSGYYPNWFQQKPGQAPRALIYSTSNKHSWTPARFSGSLLGGKAALTLSGVQPEDEAEYYCLLYYGGAQRWVFGGGTILTVLG
notes: as for B1
B7: RhD323.229B07 (Fab, V domains shown)
VH: QVQLVESGGGVVQPGRSLRLSCAASGFTFSSYGMHWVRQAPGKGLEWVAVIWYDGSNKYYADSVKGRFTISRDNSKNTLYLQMNSLRAEDTAVYYCARDWVTRSSNWYRNYYYYGMDVWGQGTTVTVSS
VL: DIQMTQSPSSLSASVGDRVTITCRASQSISSYLNWYQQKPGKAPKLLIYAASTLQSGVPSRFSGSGSGTDFTLTISSLQPEDFATYYCQQYYRTPTWTFGQGTKVEIKR
notes: as for B1

Biological target: T1, Rhesus D antigen
Assay: Fab screening on RBC (agglutination, FACS)
Procedure: After each round of panning single colonies were picked for analysis of their binding properties to red blood cells in agglutination assays. Briefly, single colonies were inoculated into 2×YT/100 μg/mL carbenicillin/1% glucose and shaken overnight at 37° C. The next day, DeepWell plates were inoculated using 900 μl 2×YT/100 μg/mL carbenicillin/0.1% glucose and 10 μl overnight culture. The plates were shaken for two hours at 37° C., before Fab induction was performed with addition of 300 μl 2×YT/100 μg/mL carbenicillin/0.25 mM IPTG per well. The plate was shaken overnight at 30° C. The following day, the bacteria were pelleted by centrifugation (3200×g, 4° C., 10 minutes), and re-suspended in 100 μl of 0.8 M NaCl, 0.2×PBS, 8 mM EDTA, and incubated for 15 minutes on ice in order to perform a periplasmic extraction of the Fab fragments. The plate was transferred to −20° C. and finally the suspension was thawed and centrifugation was performed for 10 minutes at 4° C. and 3200×g. The periplasmic extract was used in ELISA assays for analysis of Fab content and in agglutination assays to evaluate the binding potential of the individual Fab fragments.
The agglutination assay was performed as follows: RhD(−) and RhD(+) RBC were mixed in a 1:1 ratio, and washed 3 times in PBS. After the final wash, the cell mix was re-suspended in 1% BSA in PBS at a density of 10% cells, 50 μl was added to each well of a 96-plate. Periplasmic extracts were added to the wells. As a positive control Rhesogamma P immunoglobulin (Aventis) was used according to the manufacturer's instructions. The plates were incubated for one hour at room temperature with gentle shaking. The cells were washed three times with PBS, before the secondary antibody was added (goat anti-human Fab/FITC conjugate, Sigma F5512) in a 1:100 dilution. The plates were left for agglutination for one hour at room temperature without shaking. Fab fragments positive in the agglutination assay was determined by visual inspection, and recorded by taking a picture. Quantization of the binding activity of the Fab fragments was performed by FACS analysis of the agglutination samples.

Binding result, binds:
B1
B2
B3
B4
B5
B6
B7
